# According to patent publication US20240132883A1, “RNA-TRIGGERED PROTEIN CLEAVAGE AND APPLICATIONS BY THE CRISPR CAS7-11-CSX29 COMPLEX” (Massachusetts Institute of Technology, published 2024):
# “Also recorded” adds a separate entry of the source. Read-outs that look alike come from different tables or passages of the source.
# B1: D. ishimotonii Csx29, expressed as His6-Twin-Strep-SUMO-Csx29 (protein)
# chain: HHHHHHMSNPIRDIQDRLKTAKFDNKDDMMNLASSLYKYEKQLMDSSEATLCQQGLSNRPNSFSQLSQFRDSDIQSKAGGQTGKFWQNEYEACKNFQTHKERRETLEQIIRFLQNGAEEKDADDLLLKTLARAYFHRGLLYRPKGFSVPARKVEAMKKAIAYCEIILDKNEEESEALRIWLYAAMELRRCGEEYPENFAEKLFYLANDGFISELYDIRLFLEYTEREEDNNFLDMILQENQDRERLFELCLYKARACFHLNQLNDVRIYGESAIDNAPGAFADPFWDELVEFIRMLRNKKSELWKEIAIKAWDKCREKEMKVGNNIYLSWYWARQRELYDLAFMAQDGIEKKTRIADSLKSRTTLRIQELNELRKDAHRKQNRRLEDKLDRIIEQENEARDGAYLRRNPPCFTGGKREEIPFARLPQNWIAVHFYLNELESHEGGKGGHALIYDPQKAEKDQWQDKSFDYKELHRKFLEWQENYILNEEGSADFLVTLCREIEKAMPFLFKSEVIPEDRPVLWIPHGFLHRLPLHAAMKSGNNSNIEIFWERHASRYLPAWHLFDPAPYSREESSTLLKNFEEYDFQNLENGEIEVYAPSSPKKVKEAIRENPAILLLLCHGEADMTNPFRSCLKLKNKDMTIFDLLTVEDVRLSGSRILLGACESDMVPPLEFSVDEHLSVSGAFLSHKAGEIVAGLWTVDSEKVDECYSYLVEEKDFLRNLQEWQMAETENFRSENDSSLFYKIAPFRIIGFPAE
# B2: C-terminal fragment of Csx30 (residues 428-565) (other)
# chain: KKDKKAANDSKVKFPGLLEIQGCRDGDKAILLEDTDDAAANHRKLFSILKAGKLNSAFFIQSDDGEWVESESKPTMEDNRIILHDSHHSSFVWILDTGSMQLRQSVKCVKDALNKKTGSAKKLKPKTMIVWVTIPQEG
# notes: Made by Csx29 cleavage of Csx30; also called Csx30-2
# B3: crRNA (38 nt, 15-nt 5' tag + 23-nt spacer) ; target RNA with non-matching PFS (tgRNA/CTR) (ssRNA ; ssRNA)
# RNA 1: UUGAUGUCACGGAACCUUUGUUGUCUUCGACAUGGGUA
# RNA 2: GGAUUACCCAUGUCGAAGACAACAAAGCAAGGC
# Assays:
# [1] = test system: Cas7-11-Csx29 complex (mammalian codon-optimized) (Desulfonema ishimotonii); assay: cell_activity; settings: HEK293FT, citrine-Csx30-DHFR degron reporter
# [2] = target: N-terminally FLAG-tagged citrine-Csx30-degron reporter (Desulfonema ishimotonii); assay: cell-based or functional assay
# [3] = test system: T1, D. ishimotonii Csx30, full-length
# T1 sequence: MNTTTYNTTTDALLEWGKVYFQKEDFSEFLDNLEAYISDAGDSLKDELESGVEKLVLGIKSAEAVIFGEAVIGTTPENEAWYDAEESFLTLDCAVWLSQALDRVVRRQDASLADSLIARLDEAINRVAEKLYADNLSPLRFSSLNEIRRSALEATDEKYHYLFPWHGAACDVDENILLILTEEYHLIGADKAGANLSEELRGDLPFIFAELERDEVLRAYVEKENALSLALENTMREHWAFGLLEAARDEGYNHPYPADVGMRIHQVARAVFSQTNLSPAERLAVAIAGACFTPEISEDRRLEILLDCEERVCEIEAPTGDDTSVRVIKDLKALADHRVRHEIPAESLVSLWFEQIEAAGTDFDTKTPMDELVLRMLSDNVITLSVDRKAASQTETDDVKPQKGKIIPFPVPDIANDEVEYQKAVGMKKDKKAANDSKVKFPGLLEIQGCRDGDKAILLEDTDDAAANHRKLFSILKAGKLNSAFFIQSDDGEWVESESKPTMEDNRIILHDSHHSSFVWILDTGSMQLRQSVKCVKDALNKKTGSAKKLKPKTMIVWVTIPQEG
# [4] = target: T2, D. ishimotonii Csx30, full-length
# T2 chain: T1 sequence
# [5] = target: T3, N-terminal fragment of Csx30 (residues 1-427) (Desulfonema ishimotonii); assay: gel filtration (Superdex 200 Increase) and SDS-PAGE after cleavage by dCas7-11-crRNA-Csx29-tgRNA
# T3 construct: Made by Csx29 cleavage of Csx30 in the gel-filtration experiment; expressed as such in the growth assays; also called Csx30-1
# T3 chain: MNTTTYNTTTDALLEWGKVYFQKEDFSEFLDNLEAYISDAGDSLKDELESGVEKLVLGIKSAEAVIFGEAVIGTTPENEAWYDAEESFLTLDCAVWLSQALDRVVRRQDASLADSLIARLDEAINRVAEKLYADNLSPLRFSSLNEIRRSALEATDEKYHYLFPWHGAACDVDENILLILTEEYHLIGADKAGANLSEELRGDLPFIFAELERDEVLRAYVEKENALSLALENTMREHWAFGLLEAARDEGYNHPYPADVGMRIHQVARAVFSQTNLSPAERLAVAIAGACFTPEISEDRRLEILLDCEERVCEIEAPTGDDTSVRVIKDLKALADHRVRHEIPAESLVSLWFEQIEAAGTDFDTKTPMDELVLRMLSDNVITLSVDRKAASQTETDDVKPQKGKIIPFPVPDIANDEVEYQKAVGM
# [6] = target: T4, dCas7-11-Csx29 complex (Cas7-11 D429A/D654A with Csx29) (Desulfonema ishimotonii); assay: structure; cryo-EM 2.84 A; guide-target duplex with U4/C10 flipped out; PFS C(-1) and A(-2) contacted; no PAM; 1 mM MgCl2; settings: tags: MBP-Cas7-11-His6; His6-Twin-Strep-SUMO-Csx29
# Method: (§1) The Cas7-11-crRNA-Csx29-tgRNA complex was reconstituted by mixing the purified Cas7-11-crRNA-Csx29 complex and the target RNA, at a molar ratio of 1:4. The complex was purified by size-exclusion chromatography on a Superose 6 Increase 10/300 column (GE Healthcare), equilibrated with buffer E (20 mM HEPES-NaOH, pH 7.0, 150 mM NaCl, 1 mM MgCl₂, and 1 mM DTT). The peak fraction containing Cas7-11-crRNA-Csx29-tgRNA was analyzed by TBE-urea gel, and concentrated to an A₂₆₀ of 3.0, using an Amicon Ultra-4 Centrifugal Filter Unit (MWCO 50 kDa). Cryo-EM grids were glow-discharged using PIB-10 Ion Bombarder (JEOL, Japan) with 10 mA current for 3 min. The sample (3 μL) was applied to freshly glow-discharged Au 300 mesh R1.2/1.3 grids (Quantifoil) in a Vitrobot Mark IV (FEI) at 4° C. under 100% humidity conditions, and the excess solution of the sample was blotted with filter paper (Agar Scientific) with a waiting time of 10 s and a blotting time of 4 s. The grids were plunge-frozen into liquid ethane cooled at liquid nitrogen temperature. […] The sample was applied onto freshly glow-discharged Au 300 mesh R0.6/1 grids (Quantifoil) in a Vitrobot Mark IV under similar conditions to those for the Cas7-11-crRNA-Csx29-tgRNA complex. […] Micrographs were recorded at a nominal magnification of ×105,000 with a pixel size of 0.83 Å in a total exposure of 48 e⁻/Å² per 48 frames with exposure time of 2.5 s. […]
# [7] = target: T4, dCas7-11-Csx29 complex (Cas7-11 …); assay: structure; cryo-EM 2.49 A, target-free; 5' tag anchored by Cas7.1/Cas7.2; settings: tags: MBP-Cas7-11-His6; His6-Twin-Strep-SUMO-Csx29
# Method: as §1
# T4 sequence (chain, as listed by the source D429A D654A D429A D654A): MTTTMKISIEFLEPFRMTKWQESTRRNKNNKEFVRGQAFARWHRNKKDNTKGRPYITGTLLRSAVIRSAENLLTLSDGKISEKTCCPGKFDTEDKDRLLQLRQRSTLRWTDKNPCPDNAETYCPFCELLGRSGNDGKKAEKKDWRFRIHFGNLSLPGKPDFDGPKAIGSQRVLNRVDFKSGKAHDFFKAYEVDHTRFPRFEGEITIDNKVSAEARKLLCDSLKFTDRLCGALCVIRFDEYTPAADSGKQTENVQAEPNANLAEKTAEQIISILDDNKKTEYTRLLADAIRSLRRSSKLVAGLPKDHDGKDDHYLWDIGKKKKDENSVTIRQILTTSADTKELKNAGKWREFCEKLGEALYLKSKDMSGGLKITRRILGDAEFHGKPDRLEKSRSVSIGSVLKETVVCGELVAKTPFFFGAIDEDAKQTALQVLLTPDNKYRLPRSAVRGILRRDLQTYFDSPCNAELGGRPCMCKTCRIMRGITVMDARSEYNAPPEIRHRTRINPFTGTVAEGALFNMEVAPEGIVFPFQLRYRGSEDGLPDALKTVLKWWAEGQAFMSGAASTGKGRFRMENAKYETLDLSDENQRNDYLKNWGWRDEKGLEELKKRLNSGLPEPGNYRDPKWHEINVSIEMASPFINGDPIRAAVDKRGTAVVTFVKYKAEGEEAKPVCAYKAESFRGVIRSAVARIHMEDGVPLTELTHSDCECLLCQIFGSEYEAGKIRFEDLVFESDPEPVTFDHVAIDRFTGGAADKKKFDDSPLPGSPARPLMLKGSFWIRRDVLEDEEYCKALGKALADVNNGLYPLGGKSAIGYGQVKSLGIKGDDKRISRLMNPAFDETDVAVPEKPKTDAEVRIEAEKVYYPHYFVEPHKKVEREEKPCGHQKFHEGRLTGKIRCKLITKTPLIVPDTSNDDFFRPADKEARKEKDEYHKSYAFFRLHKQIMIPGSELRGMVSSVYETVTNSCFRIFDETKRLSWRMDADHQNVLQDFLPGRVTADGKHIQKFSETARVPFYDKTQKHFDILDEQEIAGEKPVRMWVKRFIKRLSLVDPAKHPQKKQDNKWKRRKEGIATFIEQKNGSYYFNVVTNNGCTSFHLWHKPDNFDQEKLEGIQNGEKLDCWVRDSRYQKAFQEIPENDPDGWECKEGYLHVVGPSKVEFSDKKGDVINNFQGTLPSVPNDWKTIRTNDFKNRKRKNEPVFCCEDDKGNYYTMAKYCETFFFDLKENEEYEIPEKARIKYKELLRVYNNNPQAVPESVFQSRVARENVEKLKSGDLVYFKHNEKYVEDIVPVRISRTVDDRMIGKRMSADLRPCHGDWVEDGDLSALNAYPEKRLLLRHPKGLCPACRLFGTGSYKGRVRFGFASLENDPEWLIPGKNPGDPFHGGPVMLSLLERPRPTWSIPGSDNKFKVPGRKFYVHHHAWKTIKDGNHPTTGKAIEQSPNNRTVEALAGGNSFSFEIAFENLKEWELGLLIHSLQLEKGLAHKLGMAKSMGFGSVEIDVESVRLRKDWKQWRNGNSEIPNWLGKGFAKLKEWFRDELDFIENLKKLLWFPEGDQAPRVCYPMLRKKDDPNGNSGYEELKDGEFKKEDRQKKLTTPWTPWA
# Sequence of Cas7-11-Csx29 complex (mammalian codon-optimized) (Desulfonema ishimotonii) (chain, as listed by the source): as the sequence (chain, as listed by the source D429A D654A D429A D654A) above, with A429D, A654D counted along it
molecule,measurement,setting,value
Gluc-targeting guide RNA ; Gaussia luciferase mRNA target,activity (fold citrine fluorescence),[1],3
"Csx29, mammalian codon-optimized, expressed in HEK293FT cells with Cas7-11 (enzyme)",citrine fluorescence in HEK293FT cells,[2],3 fold
Csx29 H615A/C658A (catalytically inactivated Csx29),in vitro cleavage of Csx30 (SDS-PAGE),[3],The H615A/C658A mutations in Csx29 abolished the Csx30 cleavage
B1,"cleavage of Csx30 within the Csx30-Csx31-DiRpoE complex (gel filtration, SDS-PAGE)",[4],"Like isolated Csx30, Csx30 in the Csx30-Csx31-DiRpoE complex was cleaved by the Cas7-11-Csx29 complex"
same,in vitro cleavage of Csx30 (SDS-PAGE),[4],"Cas7-11-crRNA-Csx29 cleaves Csx30 into two fragments, Csx30-1 (-50 kDa) and Csx30-2 (-15 kDa), only in the presence of the tgRNA; also recorded: the D429A/D654A catalytic mutations in Cas7-11 ... unexpectedly, improved the Csx30 cleavage by Csx29"
same,"in vitro cleavage of Csx30 (SDS-PAGE) with target RNAs TR, CTR, NTR",[4],"Csx30 was cleaved by the Cas7-11-Csx29 complex efficiently in the presence of CTR, but not TR and NTR"
B2,binding result,[5],no binding
B3,binding result,[6],binds
"UUGAUGUCACGGAACCUUUGUUGUCUUCGACAUGGGUA (ssRNA) [crRNA (38 nt, 15-nt 5' tag + 23-nt spacer)]",binding result,[7],binds
